Source: the Human Domainome abundance scans (Beltran et al. 2025)
± gives the uncertainty stated by the source.

B1: Membrane-associated guanylate kinase, WW and PDZ domain-containing protein 2, residues 296 to 340; numbered along this chain, Q86UL8 (parent)
chain: EDNEEPDPLPDNWEMAYTEKGEVYFIDHNTKTTSWLDPRLAKKAK

Variants of: B1
Test: abundance fitness (aPCA) (normalised: wild type 0, dead -1); higher = more abundant; growth selection in yeast, the domain comes from the species named
Conditions: Homo sapiens

| Variant | abundance fitness |
| --- | --- |
| H28R | -0.243 ± 0.045 |
| H28A | -0.417 ± 0.045 |
| H28E | -0.642 ± 0.088 |
| H28Q | -0.267 ± 0.06 |
| H28W | -0.334 ± 0.044 |
| H28F | -0.267 ± 0.18 |
| H28K | -0.269 ± 0.1 |
| H28V | -0.407 ± 0.063 |
| H28Y | -0.525 ± 0.079 |
| H28P | -0.652 ± 0.065 |
| H28G | -0.431 ± 0.044 |
| N29L | -0.059 ± 0.05 |
| N29T | -0.02 ± 0.058 |
| N29E | -0.081 ± 0.091 |
| N29V | -0.051 ± 0.069 |
| N29G | -0.019 ± 0.049 |
| N29S | -0.011 ± 0.06 |
| N29R | -0.082 ± 0.05 |
| N29W | -0.151 ± 0.056 |
| N29P | -0.673 ± 0.079 |
| N29Y | -0.122 ± 0.13 |
| N29A | 0.022 ± 0.069 |
| N29D | -0.109 ± 0.089 |
| N29Q | -0.13 ± 0.12 |

| Variant | abundance fitness |
| --- | --- |
| D11W | -0.074 ± 0.044 |
| D11L | 0.073 ± 0.063 |
| D11P | -0.099 ± 0.11 |
| D11T | 0.042 ± 0.056 |
| D11H | -0.029 ± 0.062 |
| D11N | -0.011 ± 0.07 |
| D11S | 0.421 ± 0.18 |
| D11Q | 0.091 ± 0.15 |
| D11A | 0.007 ± 0.061 |
| D11R | 0.032 ± 0.043 |
| D11M | -0.015 ± 0.098 |
| D11G | -0.096 ± 0.043 |
| D11K | -0.04 ± 0.06 |
| D11E | 0.033 ± 0.052 |
| D11V | -0.064 ± 0.051 |
| F25N | -0.756 ± 0.1 |
| F25L | -0.896 ± 0.064 |
| F25S | -0.777 ± 0.066 |
| F25G | -0.75 ± 0.054 |
| F25R | -0.715 ± 0.063 |
| F25K | -0.637 ± 0.12 |
| F25E | -0.661 ± 0.14 |
| F25V | -1.05 ± 0.08 |
| F25T | -0.839 ± 0.077 |

| Variant | abundance fitness |
| --- | --- |
| F25W | -0.103 ± 0.09 |
| W13L | -0.385 ± 0.056 |
| W13S | -0.556 ± 0.069 |
| W13R | -0.642 ± 0.087 |
| W13V | -0.32 ± 0.17 |
| W13G | -0.787 ± 0.054 |
| E19P | -0.013 ± 0.062 |
| E19V | -0.079 ± 0.056 |
| E19N | 0.031 ± 0.071 |
| E19R | -0.104 ± 0.041 |
| E19I | -0.117 ± 0.1 |
| E19L | -0.091 ± 0.053 |
| E19W | -0.319 ± 0.062 |
| E19A | 0.054 ± 0.052 |
| E19T | 0.018 ± 0.046 |
| E19G | -0.107 ± 0.043 |
| E19K | -0.031 ± 0.07 |
| E19Q | 0.02 ± 0.097 |
| E19D | -0.025 ± 0.086 |
| E19S | -0.021 ± 0.066 |
| G21W | -0.593 ± 0.091 |
| G21M | -0.152 ± 0.079 |
| G21D | -0.169 ± 0.076 |
| G21Q | -0.047 ± 0.055 |

| Variant | abundance fitness |
| --- | --- |
| G21C | -0.26 ± 0.07 |
| G21P | -0.709 ± 0.16 |
| G21K | -0.163 ± 0.084 |
| G21E | -0.14 ± 0.054 |
| G21F | -0.33 ± 0.086 |
| G21Y | -0.337 ± 0.13 |
| G21R | -0.174 ± 0.049 |
| G21S | -0.208 ± 0.069 |
| G21L | -0.329 ± 0.084 |
| G21H | -0.081 ± 0.14 |
| G21I | -0.865 ± 0.25 |
| G21V | -0.975 ± 0.072 |
| D27I | -1.58 ± 0.32 |
| D27Y | -0.217 ± 0.38 |
| D27N | -0.151 ± 0.082 |
| D27V | -1.39 ± 0.1 |
| D27P | -1.09 ± 0.22 |
| D27M | -1.03 ± 0.091 |
| D27R | -0.667 ± 0.1 |
| D27A | -0.786 ± 0.12 |
| D27G | -0.937 ± 0.074 |
| D27E | -0.487 ± 0.072 |
| D27L | -1.3 ± 0.091 |
| D27C | -0.544 ± 0.13 |

| Variant | abundance fitness |
| --- | --- |
| P10F | -0.615 ± 0.091 |
| P10W | -0.469 ± 0.046 |
| P10E | -0.376 ± 0.051 |
| P10S | -0.47 ± 0.06 |
| P10C | -0.654 ± 0.13 |
| P10I | -0.637 ± 0.069 |
| P10N | -0.465 ± 0.052 |
| P10Q | -0.469 ± 0.087 |
| P10K | -0.498 ± 0.072 |
| P10R | -0.532 ± 0.04 |
| P10L | -0.449 ± 0.054 |
| P10H | -0.614 ± 0.061 |
| P10M | -0.166 ± 0.32 |
| P10D | -0.341 ± 0.045 |
| P10V | -0.54 ± 0.044 |
| P10G | -0.436 ± 0.041 |
| P10Y | -0.508 ± 0.061 |
| P10T | -0.468 ± 0.063 |
| P10A | -0.528 ± 0.055 |
| M15V | -0.121 ± 0.084 |
| M15P | -0.308 ± 0.085 |
| M15G | -0.459 ± 0.11 |
| M15L | -0.026 ± 0.06 |
| M15C | -0.127 ± 0.095 |

| Variant | abundance fitness |
| --- | --- |
| M15R | -0.106 ± 0.076 |
| M15H | -0.428 ± 0.15 |
| M15W | -0.198 ± 0.092 |
| D7A | 0.185 ± 0.077 |
| D7W | 0.01 ± 0.057 |
| D7V | 0.134 ± 0.06 |
| D7G | 0.104 ± 0.046 |
| D7Q | 0.054 ± 0.12 |
| D7L | 0.04 ± 0.07 |
| D7R | 0.044 ± 0.058 |
| D7E | -0.008 ± 0.056 |
| D7S | 0.04 ± 0.07 |
| T18I | -0.997 ± 0.14 |
| T18E | -0.574 ± 0.3 |
| T18R | -0.91 ± 0.073 |
| T18F | -0.953 ± 0.11 |
| T18K | -0.476 ± 0.16 |
| T18G | -0.354 ± 0.048 |
| T18W | -0.725 ± 0.11 |
| T18C | -0.454 ± 0.061 |
| T18N | -0.382 ± 0.18 |
| T18Q | -0.849 ± 0.09 |
| T18P | -1.08 ± 0.13 |
| T18Y | -0.93 ± 0.25 |

| Variant | abundance fitness |
| --- | --- |
| T18S | -0.048 ± 0.077 |
| T18L | -0.514 ± 0.064 |
| T18A | -0.308 ± 0.061 |
| P6C | -0.081 ± 0.04 |
| P6D | -0.266 ± 0.05 |
| P6R | 0.029 ± 0.041 |
| P6E | -0.138 ± 0.061 |
| P6V | 0.034 ± 0.044 |
| P6N | -0.025 ± 0.064 |
| P6A | -0.001 ± 0.041 |
| P6H | 0.091 ± 0.068 |
| P6G | -0.004 ± 0.037 |
| P6W | 0.043 ± 0.046 |
| P6Y | -0.017 ± 0.054 |
| P6S | 0.003 ± 0.049 |
| P6I | -0.088 ± 0.061 |
| P6L | 0.014 ± 0.044 |
| K20C | -0.009 ± 0.092 |
| K20M | -0.004 ± 0.059 |
| K20G | -0.011 ± 0.042 |
| K20P | -0.353 ± 0.068 |
| K20D | -0.022 ± 0.063 |
| K20W | -0.267 ± 0.06 |
